B1: EBOV-507 (antibody, V domains shown)
VH: QVQLVQSGAEVKKPGASVKVSCKASGYTFNNYLINWVRQAPGQGLEWMGWINPHSGGTEYAQQFQGRLTVTRDTSIRTAYMELRGLTFDDSAMYYCWIWFRSETFDFWGQGTLVTVSS
VL: DIQMTQSPSAMSASVGDRVTITCRASQDISNYLAWFQQKPGQGPKRLIFEASILHSGVPSRFSGSGSGTEFTLTISSLQPEDFATYYCLQHNTYLTFGQGTKVEIK
B2: EBOV-524 (antibody, V domains shown)
VH: QVQLVESGGGVVQPGGSLRLSCAASGFKFSTYGMNWVRQVPGQGLEWVSFVRHDGSNKYYSDSVKGRFTIFRDNSNNKLYLQMNNLRAEDTAVYYCAKDVLDCSRADCFIYYYYMDVWGKGTLVTVSS
VL: DIQMTQSPSSVSASPGDRVTITCRASQTISGWLAWYQQKPGKAPKLLIYDVSTLQSGVPSRFSGGGSGTEFTFTISSLQPEDYATYFCQQGNRIPLSFGGGTRVEIK
B3: EBOV-446 (antibody, V domains shown)
VH: QVQLVQSGAEVKKPGASVKVSCKASGYTFTDYYIYWVRQAPGQGLEWMGWLNPNSGGTDYAQKFQGRVTMTRDTSIRTAYMDLSRLRSDDTAVYYCARGRRHGAYVDWGQGTLVTVSS
VL: DIQLTQSPSFLSASVGDRVTITCRASQGISTYLAWYQQKPGKAPNLLIYDTSTLQSGVPSRFSGSASGTEFTLTISSLQPEDFATYYCQQLNFYLGGLTFGQGTRLEIK
B4: EBOV-434 (antibody, V domains shown)
VH: QVQLVQSGAEVKKPGASVKVSCKASGYTFTGYYMFWVRQAPGQGLEWMGWINPNSGGTNYTQKFQGRVTMTRDTSISTAYMELSRLKSDDTAVYYCARDSGELLFVGSDVWGQGTLVTVSS
VL: DIQMTQSPSSVSASVGDRVTITCRASLDISYWLAWYQQKPGKAPKLLIYAASNLQSGVPSRFSGSGSGTDFTLTISSLQPEDFATYYCQQANSFPQTFGQGTRLELK
B5: EBOV-517 (antibody, V domains shown)
VH: EVQLVESGGGLVQPGGSLRLSCGASGFTFNKYWMTWVRQAPGKGLEWVANINQDGSEKYFAESVKGRFTVSRDNAKNSLYLQMNSLRAEDTAVYYCARGASIEVEILYYYHMDVWGKGTLVTVSS
VL: EIVMTQSPATLSVSPGERATLSCRASQSITTHLAWYQQKPGQAPRLLIYDTSTRATGIPARFSGSGSGTEFTLTISNMQSEDFAVYYCQQYHTWPPLTFGGGTKVEIK
B6: EBOV-508 (antibody, V domains shown)
VH: QVQLVQSGAEVKKPGASVKVSCKASGYTFINYYMHWVRQAPGQGLEWMGTINPSTGRPNYAQKFQGRVTLTRDTSTTTVDMELSSLTSEDTAVYYCVSFQFYFDYWGQGTLVTVSS
VL: DIQMTQSPSAMSPSVGDRVTITCRASQGINNYLAWFQQKPGKVPKRLIYAASNLQSGVPSRFSGSGSGTEFTLTISSLQPEDFATYYCLQHNSYPWTFGQGTKVEIN
B7: EBOV-442 (antibody, V domains shown)
VH: EVQLVESGGGLVKPGGSLRLSCTGSGGTGFTFKYAGMSWVRQAPGKGPEWIGRIKSRIDGGTTDYAAPVKDRFIVSRDDSRNTLYLQMNSLKTEDTAVYYCATGSGKGPSASFGESYYYYDFINVWGKGTTVTVSS
VL: ESVLTQSPGTLSLSPGERATLSCRASQSISRKYLAWYQQKPGQAPRLLIYGSSSRATGIPDRFSGSGSGTDFTLTISRLEPEDFAVYYCHQYESSPWTFGQGTKVEIK
B8: EBOV-518 (antibody, V domains shown)
VH: QVTLKESGPTLVKPTQTLTLTCTFSGFSMNSSGMSVTWIRQPPGKALECLALIYWDDDKWYGPSLETRVTITKDASKNQVVLTMTNMDPVDTATYYCAHSGGLVAGAFDYWGQGTLVTVSS
VL: EIVMTQSPDSLTVSLGERATINCRSSQSVLYRVNSKNYLAWYQQKAGQTPKLIINWASTRESGVPDRFSGSGSGTDFTLTISSLQAEDVAVYYCQQYYNSPRTFGQGTKVEIK
B9: EBOV-511 (antibody, V domains shown)
VH: QLQLQESGPGLVKPSETLSLSCTVSGDSISANNYFWGWIRQPPGKELEWIGSIHNSGSTYYNPSLKSRVTTSVDTSRTQFSLKLHSVTAADAAIYYCARHLAPISGVIFIPSFFDSWGQGTLVTVSS
VL: EIVMTQSPATLSVSPGERATLSCRASQSVSSNLAWYQQRPGQAPRLLIFDASTRATGVPARFSGSGSGTEFTLTISSLQSEDFALYYCQQYNDWPPRLTFGGGTKVEIK
B10: EBOV-451 (antibody, V domains shown)
VH: EVQLVESGGSVVRPGGSLRLSCAASGFKFDEYGMSWVRQAPGKGLEWVSGITWNGGVRTYADSVKGRFTISRDNAKNSVYLQMKSLRGEDTALYYCVSWGERYDAYFDYWGQGTLVTVSS
VL: EIVLTQSPGSLSLSPGERATLSCRASQSVNSRYFAWYQQRPGQAPRLLIYATSTRATGIPDRFSGSGSGTDFTLTISRLEPEDFAVYSCQQYGSSPYTFGQGTKLEIK
B11: EBOV-520 (antibody, V domains shown)
VH: QVQLQESGPGLGKPSETLSLSCTVSGASIRGYFWNWIRQPPGKGLEWIGYIHSTGSTNYNPSLKSRVTISVDTSKNQVSLNVNSVTAADTAVYFCARGAWNVATVYYYYGMDVWGQGTLVTVSS
VL: EIVLTQSPGTLSLSPGERATLSCRASQSVSSSYFAWYQQKPGQAPRLLISGTSTRAPGIPDRFSGSGSGTDFTLTISRLEPEDFAVYFCQQYGNSLYTFGQGTKLEIK
B12: EBOV-510 (antibody, V domains shown)
VH: QVQLQESGPGLVKPSQTLSLTCTVSGGSITSGDYYLTWVRQPPGKGLEWIGHIYYSGSTSYNPSLKSRLLMSVDTSKNQFSLRLSSVTAADTAVYYCARESDGDPSRLYFYFAMDVWGQGTLVTVSS
VL: QSALTQPASVSGSPGQSITISCTGTSSDVGGSYFVSWYQHHPGKAPKLMISEVSNRPSGVSNRFSGSKSGNTASLTISGLRTEDEADYYCSSYTSNTTLVFGGETKVTVL
B13: EBOV-514 (antibody, V domains shown)
VH: QVQLQESGPGLVKPSQTLSLTCTVSGASITGGDDFWSWIRQPPGKGLEWIGFIHHSGNAYYRSSLKSRVHFSVDTSKDQFSLTLTSVTAADTAVYYCARDKAQAYGLLYHYHTDVWGKGTLVTVSS
VL: EIVMTQSPATLSVSPGERATLSCRASQSVSSNLAWYQQKPGLAPRLLIYGAFTRATDIPDRFSGSGSGTEFTLTISSLQSEDFAIYYCQYYNDWPPGYTFGQGTKLEIK

target: EBOV GP on recombinant EBOV-eGFP virus (Zaire ebolavirus (EBOV)); assay: cell-based or functional assay

B1 and B2 cannot be ordered by Neutralization, IC50 ng/mL: over 200000 ng/mL for the first, over 200000 ng/mL for the second.

B3 and B4 cannot be ordered by Neutralization, IC50 ng/mL: over 200000 ng/mL for the first, over 200000 ng/mL for the second.

B5 and B6 cannot be ordered by Neutralization, IC50 ng/mL: over 200000 ng/mL for the first, over 200000 ng/mL for the second.

First: B7
Second: B8
The Neutralization, IC50 ng/mL of the first is lower: 467 ng/mL for the first, over 200000 ng/mL for the second.

B9 and B10 cannot be ordered by Neutralization, IC50 ng/mL: over 200000 ng/mL for the first, over 200000 ng/mL for the second.

First: B11
Second: B12
The Neutralization, IC50 ng/mL of the first is lower: 5740 ng/mL for the first, over 200000 ng/mL for the second.

B13 gave a Neutralization, IC50 ng/mL of over 200000 ng/mL.

From patent US20210403538A1
